Source: patent US20230192897A1 (NUMAB THERAPEUTICS, published 2023)
Values joined by “and” are separate entries in the source; they are usually repeats but may differ in a detail not shown here. Equal values may be shown once.

Experiments:
Fc tagged human CD137 = biological target: T1, Fc tagged human CD137 (human, UniProt Q07011 24-186); assay: SPR
T1 construct: also called CD137-Fc chimeric protein
Description: (§1) Affinity to PDL1 of the different species was determined by SPR measurements using a Biacore T200 device (GE Healthcare). An antibody specific for the Fc region of human IgGs was immobilized on a sensor chip (CM5 sensor chip, GE Healthcare) by amine-coupling. For all formats, with the exception of the Fc containing Morrison formats, PDL1-Fc chimeric protein from different species were captured by the immobilized antibody.
(§2) Three-fold serial dilutions of the molecules specific for PDL1 (0.12-90 nM) were injected into the flow cells for three minutes and dissociation was monitored for 10 minutes. After each injection cycle, surfaces were regenerated with one injection of a 3 M MgCl₂ solution. The apparent dissociation (kd) and association (kₐ) rate constants and the apparent dissociation equilibrium constant (KD) were calculated using one-to-one Langmuir binding model. Affinity to CD137 of the different species was determined using the identical setup as for PDL1 with the exception that CD137-Fc chimeric protein from different species were captured by the immobilized antibody.

Fc tagged human PDL1 = biological target: T2, Fc tagged human PDL1 (human, UniProt Q9NZQ7 19-239); assay: SPR
T2 construct: Bought (Sino Biological, cat. 10084-H02H); captured on the SPR chip; also called PDL1-Fc chimeric protein
Description: as §1, §2

Row | Binder | Kd (Fc tagged human CD137) | Kd (Fc tagged human PDL1) | further results
1 | PRO1392 (scFv, also called scFv of 33-03-G02 sc18) scFv: DIQMTQSPSSLSASVGDRVTITCQASQSINDYLAWYQQKPGKAPKLLIYKASTLASGVPSRFSGSGSGTDFTLTISSLQPEDFATYYCQQGYIITDIDNVFGTGTKVTVLGGGGGSGGGGSGGGGSGGGGSQVQLQESGPGLVKPSETLSLTCKASGFSFSSGYDMCWVRQPPGKGLEWIACVVAGSVDITYYASWAKGRVTISKDSSKNQVSLKLSSVTAADTAVYYCARKDAYSDAFNLWGQGTLVTVSS | – | 0.00994 nM | –
2 | PRO908 (scFv, also called scFv of 37-20-B03 sc01) scFv: DIQMTQSPSSLSASVGDRVTITCQASQSIGTYLAWYQQKPGKAPKLLIYRAFILASGVPSRFSGSGSGTDFTLTISSLQPEDFATYYCQSNFYSDSTTIGPNAFGTGTKVTVLGGGGGSGGGGSGGGGSGGGGSQVQLQESGPGLVKPSETLSLTCKVSGFSFNSDYWIYWIRQPPGKGLEWIGSIYGGSSGNTQYASWAQGRVTISVDSSKNQFSLKLSSVTAADTAVYYCARGYVDYGGATDLWGQGTLVTVSS | – | 0.00594 nM | –
3 | PRO1360 (scFv, anti-CD137 scFv; also called 38-27-A11 sc03 scFv) scFv: DFQLTQSPSSLSASVGDRVTITCQASQSISNRLAWYQQKPGKPPKLLIYSASTLASGVPSRFSGSGSGTDFTLTISSLQPEDFATYYCQSTYYGNDGNAFGTGTKVTVLGGGGGSGGGGSGGGGSGGGGSESQLVESGGGLVQPGGSLRLSCAASGFSFSANYYPCWVRQAPGKGLEWIGCIYGGSSDITYDANWTKGRFTISRDNSKNTVYLQMNSLRAEDTAVYFCARSAWYSGWGGDLWGPGTLVTVSS | 0.234 nM | – | –

The next lines start with results.

Row | Kd (Fc tagged human CD137) | Kd (Fc tagged human PDL1) | Binder | further results
4 | 1.47 nM | – | PRO1352 (scFv, also called scFv of 38-02-A04 sc13) scFv: DIQMTQSPSSLSASVGDRVTITCQASQSINNVLAWYQQKPGKAPKLLIYRASTLASGVPSRFSGSGSGTDFTLTISSLQPEDFATYYCQSSYGNYGDFGCGTKVTVLGGGGGSGGGGSGGGGSGGGGSEVQLVESGGGLVQPGGSLRLSCAASGFSFSNSYWICWVRQAPGKCLEWIGCTFVGSSDSTYYANWAKGRFTISRDNSKNTVYLQMNSLRAEDTAVYYCARHPSDAVYGYANNLWGQGTLVTVSS | –
5 | – | < 0.00209 nM | PRO1183 (scFv, also called scFv of 33 03-G02 sc03) scFv: DFQLTQSPSSLSASVGDRVTITCQASQSINDYLAWYQQKPGKSPKLLIYKASTLASGVPSRFSGSGSGTDFTLTISSLQPEDFATYYCQQGYIITDIDNVFGTGTKVTVLGGGGGSGGGGSGGGGSGGGGSQSQLQESGPGLVKPSETLSLTCKASGFSFSSGYDMCWVRQPPGKGLEWIACVVAGSVDITYYASWAKGRVTISKDSSKNQVSLKLSSVTAADTAVYFCARKDAYSDAFNLWGQGTLVTVSS | –
6 | – | 0.009 nM | PRO1347 (scFv, also called scFv of 37-20-sc09.1; 37-20-B03-sc09) scFv: DIQMTQSPASLSASVGDRVTITCQASQSIGTYLAWYQQKPGKPPKLLIYRAFILASGVPSRFSGSGSGTDFTLTISSLQPEDFATYYCQSNFYSDSTTIGPNAFGTGTKVTVLGGGGGSGGGGSGGGGSGGGGSEVQLVESGGGLVQPGGSLRLSCAASGFSFNSDYWIYWVRQAPGKGLEWIASIYGGSSGNTQYASWAQGRFTISRDNSKNTVYLQMNSLRAEDTAVYFCARGYVDYGGATDLWGQGTLVTVSS | –
7 | 3.24 nM and 3.07 nM | – | PRO1359 (scFv, anti-CD137 scFv; also called 38-27-A11 sc02 scFv) scFv: DIQMTQSPSSLSASVGDRVTITCQASQSISNRLAWYQQKPGKAPKLLIYSASTLASGVPSRFSGSGSGTDFTLTISSLQPEDFATYYCQSTYYGNDGNAFGTGTKVTVLGGGGGSGGGGSGGGGSGGGGSEVQLVESGGGLVQPGGSLRLSCAASGFSFSANYYPCWVRQAPGKGLEWIGCIYGGSSDITYDANWTKGRFTISRDNSKNTVYLQMNSLRAEDTAVYYCARSAWYSGWGGDLWGQGTLVTVSS | –
8 | 2.2 nM | – | PRO966 (other, trispecific scDb-scFv; also called PRO1052; 38-27-C05 sc01 scDb-i/33-03-G02 sc01 scDb-o/19-01-H04-sc03 scFv) DIQMTQSPSSLSASVGDRVTITCQASQSINDYLAWYQQKPGKAPKLLIYKASTLASGVPSRFSGSGSGTDFTLTISSLQPEDFATYYCQQGYIITDIDNVFGTGTKVTVLGGGGGSQVQLQESGPGLVKPSETLSLTCKVSGFSFNNDYDMCWIRQPPGKGLEWIGCIDTGDGSTYYASWAKGRVTISVDSSKNQFSLKLSSVTAADTAVYYCAREAASSSGYGMGYFDLWGQGTLVTVSSGGGGSGGGGSGGGGSGGGGSIQMTQSPSSLSASVGDRVTITCQSSQSVYDNNWLAWYQQKPGKAPKLLIYRASNLASGVPSRFSGSGSGTDFTLTISSLQPEDFATYYCQGTYLSSNWYWAFGTGTKVTVLGGGGGSQVQLQESGPGLVKPSETLSLTCKVSGFSFSSGYDMCWIRQPPGKGLEWIGCVVAGSVDITYYASWAKGRVTISVDSSKNQFSLKLSSVTAADTAVYYCARKDAYSDAFNLWGQGTLVTVSSGGGGSGGGGSIQMTQSPSSLSASVGDRVTITCQSSESVYSNNQLSWYQQKPGQPPKLLIYDASDLASGVPSRFSGSGSGTDFTLTISSLQPEDFATYYCAGGFSSSSDTAFGGGTKLTVLGGGGGSGGGGSGGGGSGGGGSEVQLVESGGGLVQPGGSLRLSCAASGFSLSSNAMGWVRQAPGKGLEYIGIISVGGFTYYASWAKGRFTISRDNSKNTVYLQMNSLRAEDTATYFCARDRHGGDSSGAFYLWGQGTLVTVSS | binding result (Fc tagged human PDL1): binds; koff (Fc tagged human CD137): 0.0022 s⁻¹
